From patent US20180245075, “INTEGRATED SYSTEM FOR PROGRAMMABLE DNA METHYLATION” (Trustees of Boston University, published 2018)

How the values were obtained:
ZF10-1-Dam(WT) writer = ZF10-1-Dam(WT) writer (synthetic; Escherichia coli Dam, UniProt P0AEE8 SEQ:21-472); assay: cell_activity; with DpnI-VP64, episomal interspersed reporter; conditions: tags: NLS, ZF10-1 six-finger array fused to Dam
Protocol: Reporter plasmid was co-transfected with Writer and Reader-Effector constructs, and single-cell GFP levels were measured with flow cytometry two days post-transfection. […] Specific constructs corresponding to the data below were: Reporter: [8XZF_14XGATC_interspersed] minimal CMV promoter; Writer: minCMV-ZF10-1-Dam (WT); and Reader-Effector: UBC-NLS-DpnI DBD-VP64.
Flow cytometry measurements were performed using an Attune NxT Flow Cytometer (Thermo Fisher Scientific) equipped with a high-throughput auto-sampler. Typically, 50,000 or 70,000 events were acquired for transient transfection or stable cell line experiments, respectively. Cells were gated by forward (FSC) and side scatter (SSC) distributions, and either iRFP or mCherry expression for transfection- or integration-positive populations, respectively. For experiments with transient transfection of synI/synR modules (FIGS. 9A-9C), geometric means of the GFP fluorescence distributions were calculated using FLOWJO (Treestar Software). GFP fold change was then calculated by normalizing mean GFP intensity to reporter-only controls, unless otherwise noted. For spreading and memory experiments (with integrated constructs), the percentage of GFP activated cells was quantified using a GFP+gate that contains ˜0.5-1% of negative control cells (FIG. 17E). […]

[1] = target: ZF10-1-Dam(N132A) writer (synI) (synthetic; Escherichia coli Dam, UniProt P0AEE8 SEQ:21-472); assay: cell_activity; integrated Clustered Reporter, GATC 140 bp downstream, vs mCherry-Dam; ~6-fold on transient reporter (p253); conditions: tags: NLS, ZF10-1 six-finger array fused to Dam
Protocol: Fraction methylation was measured using m6A-qPCR at a single GATC site proximal to the ZF BS array in the singly integrated Clustered Reporter (6th site, 140 bp downstream from end of ZF array). (n=3; error bars, SD). […] (n=3; error bars, SD). […] Diagonal line represents no enrichment in ZF sequence-specific methylation over “background” methylation. Dam N132A and WT are marked in red and black, respectively. (n=3; error bars, SD). […] Cells were transfected with the indicated constructs: Interspersed Reporter only, ZF-VP64 constitutively expressed from pUBC, synI^NT (Dam WT) constitutively expressed from a strong promoter (pCLPIT with no Dox induction), synI^NT (Dam WT) constitutively expressed from a weak promoter (pMinCMV), and synI^NT (Dam N132A) constitutively expressed from a weak promoter (pMinCMV). Genomic DNA (gDNA) was isolated 2 days following transfection, digested with or without DpnII, run out on an agarose gel (top), and the bands used to quantify total fraction methylated DNA (bottom). Undigested bands appearing at the top of each lane in DpnII-treated samples represent methylated (protected) gDNA, while […] gDNA fragments that are digested by DpnII appear as a smear (from ˜0.3-2 kb). Total fraction methylated gDNA is calculated as undigested gDNA in DpnII-treated samples normalized by total gDNA. […]

B1: ZF10-1 binding sequence (BS), arrayed in reporter (dsDNA)
DNA 1: CGGCGTAGCCGATGTCGCGC
DNA 2: GCGCGACATCGGCTACGCCG
B1 showed an activity (ZF10-1-Dam(WT) writer) greater than 100 fold GFP activation and an activity [1] of roughly 10 fold m6A enrichment.
